Test results: the supplement of paper PMC7877785
± gives the uncertainty stated by the source.

Assay: self-splicing fitness, log relative to wild type (ln ratio); higher = more splicing; Tetrahymena group I intron in knt gene, E. coli kanamycin selection, DiMSum; sequences stand for … in CUCUCU…GGAGGGAAAAGUUAUCAGGCAUGCACCUGGUAGCUAGUCUUUAAACCAAUAGAUUGCAUCGGUUUAAAAGGCAAGACCGUCAAAUUGCGGGAAAGGGGUCAACAGCCGUUCAGUACCAAGUCUCAGGGGAAACUUUGAGAUGGCCUUGCAAAGGGUAUGGUAAUAAGCUGACGGACAUGGUCCUAACCACGCAGCCAAGUCCUAAGUCAACAGAUCUUCUGUUGAUAUGGAUGCAGUUCACAGACUAAAUGUCGGUCGGGGAAGAUGUAUUCUUCUCAUAAGAUAUAGUCGGACCUCUCCUUAAUGGGAGCUAGCGGAUGAAGUGAUGCAACACUGGAGCCGCUGGGAACUAAUUUGUAUGCGAAAGUAUAUUGAUUAGUUUUGGAGUACUCGUGGUCG
Procedure, shortened: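 DiMSum derived fitness as the error-weighted combination of fold changes across replicates, kanamycin versus no kanamycin, normalised to wild type. E. coli BL21(DE3) held the library, which randomised all eight P1ex-region intron nucleotides within the knt kanamycin-resistance gene on pET-22b(+). Six replicate transformations grew overnight at 37°C or 30°C on LB agar with or without 25 μg/mL kanamycin, also containing 100 μg/mL carbenicillin, 50 μM IPTG and 0.2% rhamnose, and pooled colonies were amplicon-sequenced on an Illumina HiSeq 2500.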

Row | Sequence | self-splicing fitness (ln) (37 °C) | self-splicing fitness (ln) (30 °C)
1 | AUUGAGCAAUAUUACGAUAA | -2.14 ± 0.4 | –
2 | GCAAAGCAAUAUUACGAUCU | -0.252 ± 0.099 | -0.767 ± 0.087
3 | CUCAAGCAAUAUUACGCUCG | -0.979 ± 0.33 | –
4 | GAGCAGCAAUAUUACGGCCG | -0.59 ± 0.27 | -1.05 ± 0.17
5 | GACGAGCAAUAUUACGACUC | 0.797 ± 0.18 | -1.36 ± 0.15
6 | ACUGAGCAAUAUUACGAGCA | -1.42 ± 0.19 | -2.63 ± 0.27
7 | AAACAGCAAUAUUACGUCAA | -1.44 ± 0.087 | -2.45 ± 0.11
8 | AUAGAGCAAUAUUACGUUGG | -2.51 ± 0.19 | -4.04 ± 0.25
9 | GCGGAGCAAUAUUACGCAAU | – | -3.51 ± 0.43
10 | CAGUAGCAAUAUUACGUGCU | -1.84 ± 0.3 | -2.95 ± 0.19
11 | GUUAAGCAAUAUUACGGAUU | -0.713 ± 0.14 | -2.21 ± 0.12
12 | CUCGAGCAAUAUUACGACUC | -2.61 ± 0.24 | -4.16 ± 0.22
13 | GAGGAGCAAUAUUACGGAGC | -0.748 ± 0.26 | –
14 | CGCCAGCAAUAUUACGCCUU | -2.29 ± 0.26 | -3.11 ± 0.27
15 | UGAGAGCAAUAUUACGAUAU | -2.8 ± 0.44 | –
16 | CGAAAGCAAUAUUACGUGCC | -1.95 ± 0.17 | -3.18 ± 0.17
17 | GCCAAGCAAUAUUACGUGCU | -1.56 ± 0.092 | -3.04 ± 0.11
18 | GCACAGCAAUAUUACGAACC | 0.621 ± 0.18 | -0.135 ± 0.15
19 | AUAUAGCAAUAUUACGUCCU | 0.119 ± 0.12 | -0.548 ± 0.11
20 | AUGAAGCAAUAUUACGAAUG | -0.913 ± 0.1 | -1.25 ± 0.095

Row | Sequence | self-splicing fitness (ln) (37 °C) | self-splicing fitness (ln) (30 °C)
21 | UCACAGCAAUAUUACGUGCA | 0.0083 ± 0.085 | -0.403 ± 0.067
22 | GAUCAGCAAUAUUACGGUAG | 0.269 ± 0.1 | -0.683 ± 0.084
23 | GUAUAGCAAUAUUACGAUUU | 0.247 ± 0.13 | -1.63 ± 0.11
24 | CCUAAGCAAUAUUACGCUGG | -2.48 ± 0.25 | -4.1 ± 0.32
25 | ACUAAGCAAUAUUACGUUAA | -2.7 ± 0.18 | -2.77 ± 0.14
26 | CCUGAGCAAUAUUACGGUAC | – | -4.34 ± 0.34
27 | UUUCAGCAAUAUUACGCGGA | -1.54 ± 0.15 | -2.2 ± 0.14
28 | CCGAAGCAAUAUUACGGCCU | -2.02 ± 0.33 | -3.94 ± 0.36
29 | ACGCAGCAAUAUUACGUAGG | -2.86 ± 0.13 | -2.12 ± 0.096
30 | ACCUAGCAAUAUUACGGCUC | -0.468 ± 0.14 | -0.922 ± 0.1
31 | CUUCAGCAAUAUUACGAGAC | -3.01 ± 0.34 | -4.24 ± 0.34
32 | GCUGAGCAAUAUUACGCGGG | -1.19 ± 0.14 | -2.93 ± 0.14
33 | CUAAAGCAAUAUUACGAAAG | 0.21 ± 0.12 | 0.0922 ± 0.092
34 | CAUAAGCAAUAUUACGAUUA | -1.4 ± 0.14 | -1.64 ± 0.14
35 | GUCAAGCAAUAUUACGCAUA | -0.367 ± 0.06 | -1.58 ± 0.063
36 | AUCAAGCAAUAUUACGAUUU | -0.186 ± 0.072 | -0.487 ± 0.056
37 | ACAGAGCAAUAUUACGAGAC | -2.67 ± 0.31 | -3.23 ± 0.37
38 | AUCCAGCAAUAUUACGGUAG | -2.6 ± 0.15 | -3.97 ± 0.2
39 | AACCAGCAAUAUUACGGAUG | -0.508 ± 0.072 | -0.77 ± 0.058
40 | CUGUAGCAAUAUUACGAACU | – | -2.78 ± 0.26
